Results from US20160237419.

Key:
[1] = biological target: T1, supercharged variant of human trypsinogen-1 (PRSS1 sc)
T1 chain: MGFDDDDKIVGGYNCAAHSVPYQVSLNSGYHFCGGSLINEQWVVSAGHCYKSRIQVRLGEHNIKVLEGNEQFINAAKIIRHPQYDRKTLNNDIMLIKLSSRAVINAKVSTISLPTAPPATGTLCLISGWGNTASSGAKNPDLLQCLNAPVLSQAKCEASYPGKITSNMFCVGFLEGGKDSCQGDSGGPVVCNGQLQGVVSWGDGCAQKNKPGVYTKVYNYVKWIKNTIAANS

[2] = biological target: human wild type trypsinogen-1 (PRSS1 wt)

B1: human enteropeptidase light chain sc C112S (hEPI-sc-C112S) (protein)
chain: IVGGSDAKEGAWPWVVGLYYDDRLLCGASLVSSDWLVSAAHCVYGRNLEPSKWTAILGLHMKSNLTSPQTVPRLIDEIVINPHYNRRRKDNDIAMMHLEFKVNYTDYIQPISLPEENQVFPPGRNCSIAGWGTVVYQGTTADILQEADVPLLSNERCQQQMPEYNITENMICAGYEEGGIDSCQGDSGGPLMCQENNRWFLAGVTSFGYECALPNRPGVYARVSRFTEWIQSFLH
In the case of B1, the “activation of trypsinogen by enteropeptidase (trypsin activity on CBZ-GPR-pNA; fluorescence of FRET peptide 7)” value [1] is reported as “Both PRSS1 versions can be activated to similar levels, although PRSS1 sc shows a slightly slower activation profile” and the “activation of trypsinogen by enteropeptidase (trypsin activity on CBZ-GPR-pNA; fluorescence of FRET peptide 7)” value [2] is reported as “Both PRSS1 versions can be activated to similar levels”.
